Data reported in patent US20190367572A1.

Biological target: sonic hedgehog protein (SHH), endogenous in rat MPG/CN organ culture (rat) (UniProt Q63673)
Assay: cell-based or functional assay

Sequence of sonic hedgehog protein (SHH), endogenous in rat MPG/CN organ culture (rat) (Q63673 25-198 limits assumed): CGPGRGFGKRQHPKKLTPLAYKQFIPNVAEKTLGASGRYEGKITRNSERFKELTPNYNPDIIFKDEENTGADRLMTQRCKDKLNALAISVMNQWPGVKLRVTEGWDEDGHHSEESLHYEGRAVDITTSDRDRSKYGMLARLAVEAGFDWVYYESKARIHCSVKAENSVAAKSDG

5E1 SHH inhibitor (antibody) gave a neurite formation (growth cones per mm) in uninjured MPG/CN organ culture, three days of 86 % reduction and a neurite formation (growth cones per mm) in uninjured MPG/CN organ culture, three days (fold reduction) of 7.3.
